The record followed here is US20020103133.

For data set [1], the system named is succinyl-P-L-G-Hof-Y-L-Dox.
The subject of data set [2] is acetyl-P-L-G-Hof-Orn-L-Dox.

Where only a bound is given, the exact number is not on record here.

For the substance MMP-9, the kcat/Km (cleavage of conjugate, HPLC) in the data set on acetyl-P-L-G-L-Y-A-L-Dox was 2.96e+08 M⁻¹ s⁻¹; in the data set with acetyl-G-P-L-G-L-L-Dox, 9.5e+07 M⁻¹ s⁻¹; in data set [1], greater than 1.2e+08 M⁻¹ s⁻¹; in data set [2], 2.6e+07 M⁻¹ s⁻¹; in the data set on acetyl-P-L-G-L-L-S-L-Dox it was 1.49e+08 M⁻¹ s⁻¹; in the data set on acetyl-P-L-G-L-A-A-L-Dox, 1.65e+08 M⁻¹ s⁻¹. Further, the kcat/Km (cleavage of conjugate, HPLC) in the data set with acetyl-G-P-L-G-L-Y-Dox stood at 1.1e+08 M⁻¹ s⁻¹; in the data set on acetyl-P-L-G-L-L-A-L-Dox, 1.3e+08 M⁻¹ s⁻¹; in the data set with acetyl-P-L-G-L-A-L-Dox, 2.4e+07 M⁻¹ s⁻¹; in the data set with acetyl-P-L-G-L-L-Dox it was 1.3e+08 M⁻¹ s⁻¹; in the data set with acetyl-P-L-G-Hof-Y-L-Dox, 3.4e+07 M⁻¹ s⁻¹; with acetyl-P-L-G-L-Y-L-Dox, 3.9e+08 M⁻¹ s⁻¹. In the data set on acetyl-G-P-L-G-L-A-L-Dox, the kcat/Km (cleavage of conjugate, HPLC) worked out at 1.9e+07 M⁻¹ s⁻¹.
